Source: patent US20230322857A1, “RECOMBINANTLY ENGINEERED POLYPEPTIDES CAPABLE OF RECYCLING NONCANONICAL COFACTORS” (The Regents of the University of California, priority 2022, published 2023)
“Also recorded” adds a separate entry of the source.

Columns and labels:
[1] = Comparison of PTDH and GDH Triple redox cofactor cycling systems; type: biochemical
Experimental: Comparison of PTDH and GDH Triple Redox Cofactor Cycling Systems. In cycling reactions focused on higher conversion and productivity, see FIG. 10C, the concentration of cofactor cycling protein (TS-PTDH or GDH Triple) was increased relative to the TTN determination experiments. Reactions were performed at 30° C. without shaking in 1 mL volumes in 2 mL glass vials secured with a PTFE-lined screw cap. Sampling and GC-FID analysis were performed as described in the TTN method section.
Reactions utilizing TS-PTDH LY-13 contained 100 mM MOPS at pH 7.5, 100 mM sodium phosphite, 33 mM KIP, and 18.8 μM XenA. Reactions utilizing GDH Triple contained 200 mM potassium phosphate at pH 7.5, 300 mM D-glucose, 1 M NaCl, 33 mM KIP, and 18.8 μM XenA. The NMN^+ concentration in each reaction was varied at 0, 0.05, 0.1, 0.5, or 5 mM. The reactions were initiated by spiking TS-PTDH LY-13 or GDH Triple to a final concentration of 10 μM.

[2] = Steady-state kinetics of TS-PTDH variants with NADP^+; type: biochemical; conditions: 100 mM MOPS, pH 7.25, 10 mM sodium phosphite, varied cofactor concentrations; n = 3
E. coli SHuffle strain = assay: Recapitulation of growth restoration with TS-PTDH variants in SHuffle strain; type: cell-based, Escherichia coli; conditions: spotted onto agar selection plates
Experimental: Selection of TS-PTDH Library. A total of 50 μL pre-made SHuffle/pLZ311 or SHuffle/pLZ312 electro-competent cells were transformed with 2 μL TS-PTDH A155N-E175-A176-L208 NNK library DNA (pLZ316) via electroporation as described above. After rescue in SOC media for 1 h, cultures were combined in 10 mL 2×YT with 10 g/L glucose, 0.5% arabinose, kanamycin and ampicillin. 0.2, or 1 μL of culture was immediately taken from the culture and plated on an 2×YT agar plates with kanamycin and ampicillin. The plate was incubated at 37° C. overnight, and the number of colonies formed was counted to estimate the library size. The liquid cultures were incubated at 37° C. with shaking for 10 h. Cells (1 mL) were washed 3 times and re-suspended in M9 Buffer. Targeted serial dilutions of cells were prepared in M9 buffer and 5 μL aliquots were dispensed in series on an agar plate of M9 selection media containing 0.5 mM diamide, 5 or 1 g/L yeast extract, 10 g/L glucose, 0.5% arabinose, 0.5 mM IPTG, 10 g/L sodium phosphite, kanamycin, ampicillin, and 5 mM NMN^+. Selection plates were incubated at 37° C., and photographs were taken to document growth progress. The independent transformants sampled was calculated as 2.4×10^6 and 2.5×10^6 colonies when plated on 5 and 1 g/L yeast extract, respectively. TS-PTDH and the template of the library, TS-PTDH A155N, were cultured in the same conditions as controls. The colonies were numbered by the order of appearance. The selected cells were re-streaked on fresh agar plate with identical media and incubated until single colonies formed on the plate. Variants that cannot forma single colony may be false positives. After extracting the plasmids from each re-streaked colony, the chosen TS-PTDH variants were amplified and moved into the pQElac vector containing a N-terminal 6×His tag for protein purification and characterization. […] 2 μL of a serial dilution of cells were deposited onto a growth selection plate and grown at 37° C.

[3] = Steady-state kinetics of TS-PTDH variants with NAD^+; type: biochemical; conditions: 100 mM MOPS, pH 7.25, 10 mM sodium phosphite, varied cofactor concentrations; n = 3

B1: LY-13: phosphite dehydrogenase variant with A155N, E175A, A176F (SEQ ID NO: 6) (protein)
chain: MLPKLVITHRVHEEILQLLAPHCELITNQTDSTLTREEILRRCRDAQAMMAFMPDRVDADFLQACPELRVIGCALKGFDNFDVDACTARGVWLTFVPDLLTVPTAELAIGLAVGLGRHLRAADAFVRSGKFRGWQPRFYGTGLDNATVGFLGMGNIGLAMADRLQGWGATLQYHAFKALDTQTEQRLGLRQVACSELFASSDFILLALPLNADTLHLVNAELLALVRPGALLVNPCRGSVVDEAAVLAALERGQLGGYAADVFEMEDWARADRPQQIDPALLAHPNTLFTPHIGSAVRAVRLEIERCAAQNILQALAGERPINAVNRLPKANPAAD
time to complete conversion of the 33 mM KIP pool ([1]; 5 mM NMN^+ supplied, 10 μM cycling enzyme, 18.8 μM XenA): 12 h
biotransformation performance compared to GDH Triple at low NMN^+ ([1]; NMN^+ supplementation 1 mM and lower): higher biotransformation rates and final titers; also recorded: more efficient utilization of the NMN^+ pool; also recorded: outperform GDH Triple
Km [2]: 50 ± 10 µM
NADP^+ kcat [2]: 0.96 ± 0.02 s⁻¹
growth restoration, co-expression with NMNH-specific Gor Ortho (E. coli SHuffle strain): markedly improved growth restoration
growth restoration, co-expression with NMNH-specific Gor Ortho (E. coli SHuffle strain; listed as TS-PTDH LY-13): improved growth compared to TS-PTDH A155N
Km [3]: 180 ± 30 µM
NAD^+ kcat [3]: 2.06 ± 0.11 s⁻¹
